# According to IntAct's records for PubMed 35512704:
# B1: Speckle-type POZ protein (Homo sapiens), O43791 (parent)
# chain: MSRVPSPPPPAEMSSGPVAESWCYTQIKVVKFSYMWTINNFSFCREEMGEVIKSSTFSSGANDKLKWCLRVNPKGLDEESKDYLSLYLLLVSCPKSEVRAKFKFSILNAKGEETKAMESQRAYRFVQGKDWGFKKFIRRDFLLDEANGLLPDDKLTLFCEVSVVQDSVNISGQNTMNMVKVPECRLADELGGLWENSRFTDCCLCVAGQEFQAHKAILAARSPVFSAMFEHEMEESKKNRVEINDVEPEVFKEMMCFIYTGKAPNLDKMADDLLAAADKYALERLKVMCEDALCSNLSVENAAEILILADLHSADQLKTQAVDFINYHASDVLETSGWKSMVVSHPHLVAEAYRSLASAQCPFLGPPRKRLKQS
# Variants of: B1
# Conditions: with kdm5a_human KDM5A
row,Variant,effect of a mutation on the interaction
1,F102C,with no effect

# Variants of: B1
# Conditions: with kdm5c_human KDM5C
row,Variant,effect of a mutation on the interaction
1,F102C,with no effect

# Variants of: B1
# Conditions: with kdm6a_human KDM6A
row,Variant,effect of a mutation on the interaction
1,F102C,with no effect

# Variants of: B1
# Conditions: with vgfr2_human KDR
row,Variant,effect of a mutation on the interaction
1,F102C,with no effect

# Variants of: B1
# Conditions: with lims1_human LIMS1, P48059
# Sequence of lims1_human LIMS1, P48059 (P48059 whole entry): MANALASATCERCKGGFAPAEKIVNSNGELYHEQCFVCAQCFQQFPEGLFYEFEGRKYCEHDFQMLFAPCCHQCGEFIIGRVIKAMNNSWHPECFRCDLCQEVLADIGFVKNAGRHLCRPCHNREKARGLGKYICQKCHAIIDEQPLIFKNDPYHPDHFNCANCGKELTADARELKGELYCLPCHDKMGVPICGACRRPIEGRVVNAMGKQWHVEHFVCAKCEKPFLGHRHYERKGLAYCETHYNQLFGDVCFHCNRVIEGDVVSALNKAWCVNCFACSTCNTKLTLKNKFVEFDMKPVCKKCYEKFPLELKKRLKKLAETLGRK
row,Variant,effect of a mutation on the interaction
1,F102C,with no effect

# Variants of: B1
# Conditions: with maga6_human MAGEA6, P43360
row,Variant,effect of a mutation on the interaction
1,F102C,with no effect

# Variants of: B1
# Conditions: with m3k1_human MAP3K1, Q13233
row,Variant,effect of a mutation on the interaction
1,F102C,with no effect

# Variants of: B1
# Conditions: with mk10_human MAPK10, P53779
row,Variant,effect of a mutation on the interaction
1,F102C,with no effect

# Variants of: B1
# Conditions: with mk14_human MAPK14, Q16539
row,Variant,effect of a mutation on the interaction
1,F102C,with no effect

# Variants of: B1
# Conditions: with mk03_human MAPK3, P27361
row,Variant,effect of a mutation on the interaction
1,F102C,with no effect

# Variants of: B1
# Conditions: with mk04_human MAPK4, P31152
row,Variant,effect of a mutation on the interaction
1,F102C,with no effect

# Variants of: B1
# Conditions: with mk06_human MAPK6, Q16659
row,Variant,effect of a mutation on the interaction
1,F102C,with no effect

# Variants of: B1
# Conditions: with sin1_human MAPKAP1, Q9BPZ7
row,Variant,effect of a mutation on the interaction
1,F102C,with no effect

# Variants of: B1
# Conditions: with mcl1_human MCL1, Q07820
row,Variant,effect of a mutation on the interaction
1,F102C,with no effect

# Variants of: B1
# Conditions: with mdm2_human MDM2, Q00987
row,Variant,effect of a mutation on the interaction
1,F102C,with no effect

# Variants of: B1
# Conditions: with mef2a_human MEF2A
row,Variant,effect of a mutation on the interaction
1,F102C,with no effect

# Variants of: B1
# Conditions: with mitf_human MITF
row,Variant,effect of a mutation on the interaction
1,F102C,with no effect

# Variants of: B1
# Conditions: with mtor_human MTOR
row,Variant,effect of a mutation on the interaction
1,F102C,with no effect

# Variants of: B1
# Conditions: with mybb_human MYBL2, P10244
# Sequence of mybb_human MYBL2, P10244 (P10244 whole entry): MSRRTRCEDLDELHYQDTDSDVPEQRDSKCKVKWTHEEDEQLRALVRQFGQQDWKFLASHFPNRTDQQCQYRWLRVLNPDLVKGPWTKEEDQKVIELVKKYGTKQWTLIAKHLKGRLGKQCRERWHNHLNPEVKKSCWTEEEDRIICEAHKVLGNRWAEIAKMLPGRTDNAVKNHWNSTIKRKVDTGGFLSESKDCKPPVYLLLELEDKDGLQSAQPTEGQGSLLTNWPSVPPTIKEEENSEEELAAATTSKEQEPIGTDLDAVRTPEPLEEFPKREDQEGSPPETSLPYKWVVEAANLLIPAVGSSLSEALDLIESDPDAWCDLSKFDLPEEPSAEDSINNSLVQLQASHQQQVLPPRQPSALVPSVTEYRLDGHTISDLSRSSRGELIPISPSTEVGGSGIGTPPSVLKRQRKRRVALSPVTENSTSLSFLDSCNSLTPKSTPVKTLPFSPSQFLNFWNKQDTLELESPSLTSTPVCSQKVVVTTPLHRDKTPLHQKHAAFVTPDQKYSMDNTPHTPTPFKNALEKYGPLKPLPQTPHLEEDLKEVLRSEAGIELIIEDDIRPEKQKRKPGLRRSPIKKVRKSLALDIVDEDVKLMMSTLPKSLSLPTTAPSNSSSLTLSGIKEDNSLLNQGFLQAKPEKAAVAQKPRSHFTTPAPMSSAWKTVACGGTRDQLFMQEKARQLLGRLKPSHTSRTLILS
row,Variant,effect of a mutation on the interaction
1,F102C,with no effect

# Variants of: B1
# Conditions: with myc_human MYC
row,Variant,effect of a mutation on the interaction
1,F102C,with no effect

# Variants of: B1
# Conditions: with mycn_human MYCN
row,Variant,effect of a mutation on the interaction
1,F102C,with no effect

# Variants of: B1
# Conditions: with ncoa3_human NCOA3, Q9Y6Q9
row,Variant,effect of a mutation on the interaction
1,F102C,with no effect

# Variants of: B1
# Conditions: with ikba_human NFKBIA
row,Variant,effect of a mutation on the interaction
1,F102C,with no effect

# Variants of: B1
# Conditions: with nox1_human NOX1, Q9Y5S8
# Sequence of nox1_human NOX1, Q9Y5S8 (Q9Y5S8 whole entry): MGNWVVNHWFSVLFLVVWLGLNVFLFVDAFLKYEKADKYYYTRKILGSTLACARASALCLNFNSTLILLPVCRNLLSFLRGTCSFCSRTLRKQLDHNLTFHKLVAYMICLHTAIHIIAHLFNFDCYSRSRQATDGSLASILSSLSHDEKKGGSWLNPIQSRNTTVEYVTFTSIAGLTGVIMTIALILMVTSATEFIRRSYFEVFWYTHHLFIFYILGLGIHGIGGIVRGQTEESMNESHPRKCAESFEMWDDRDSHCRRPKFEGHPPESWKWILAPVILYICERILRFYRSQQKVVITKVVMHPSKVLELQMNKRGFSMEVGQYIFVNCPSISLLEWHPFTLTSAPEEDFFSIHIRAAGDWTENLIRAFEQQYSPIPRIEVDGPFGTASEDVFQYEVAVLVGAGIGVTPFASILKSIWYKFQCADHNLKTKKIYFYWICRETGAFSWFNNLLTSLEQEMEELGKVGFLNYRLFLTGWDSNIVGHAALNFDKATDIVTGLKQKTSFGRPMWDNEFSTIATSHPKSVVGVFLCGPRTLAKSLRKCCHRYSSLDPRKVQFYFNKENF
row,Variant,effect of a mutation on the interaction
1,F102C,with no effect

# Variants of: B1
# Conditions: with ntrk2_human NTRK2, Q16620
row,Variant,effect of a mutation on the interaction
1,F102C,with no effect

# Variants of: B1
# Conditions: with ntrk3_human NTRK3, Q16288
row,Variant,effect of a mutation on the interaction
1,F102C,with no effect

# Variants of: B1
# Conditions: with pak3_human PAK3, O75914
# Sequence of pak3_human PAK3, O75914 (O75914 whole entry, looked up): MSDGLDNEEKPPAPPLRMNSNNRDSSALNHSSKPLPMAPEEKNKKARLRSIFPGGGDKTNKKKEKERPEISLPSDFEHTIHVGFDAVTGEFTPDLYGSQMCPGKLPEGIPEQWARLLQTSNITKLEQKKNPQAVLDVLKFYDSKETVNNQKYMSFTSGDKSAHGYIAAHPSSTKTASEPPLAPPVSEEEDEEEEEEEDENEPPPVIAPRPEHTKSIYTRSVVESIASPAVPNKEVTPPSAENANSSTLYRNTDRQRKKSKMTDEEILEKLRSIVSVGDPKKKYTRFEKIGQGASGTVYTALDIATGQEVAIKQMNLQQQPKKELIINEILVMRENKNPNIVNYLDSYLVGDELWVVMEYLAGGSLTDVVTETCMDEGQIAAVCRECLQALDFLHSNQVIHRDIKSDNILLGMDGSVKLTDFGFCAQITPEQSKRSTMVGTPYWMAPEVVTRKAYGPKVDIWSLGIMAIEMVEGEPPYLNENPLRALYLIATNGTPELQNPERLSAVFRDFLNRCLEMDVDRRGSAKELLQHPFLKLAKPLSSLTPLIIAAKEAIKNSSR
row,Variant,effect of a mutation on the interaction
1,F102C,with no effect

# Variants of: B1
# Conditions: with prkn_human PRKN
row,Variant,effect of a mutation on the interaction
1,F102C,with no effect

# Variants of: B1
# Conditions: with pcbp1_human PCBP1, Q15365
row,Variant,effect of a mutation on the interaction
1,F102C,with no effect

# Variants of: B1
# Conditions: with pdcd1_human PDCD1, Q15116
row,Variant,effect of a mutation on the interaction
1,F102C,with no effect

# Variants of: B1
# Conditions: with pgfrb_human PDGFRB
row,Variant,effect of a mutation on the interaction
1,F102C,with no effect

# Variants of: B1
# Conditions: with pdk1_human PDK1, Q15118
row,Variant,effect of a mutation on the interaction
1,F102C,with no effect

# Variants of: B1
# Conditions: with PIK3C2B
row,Variant,effect of a mutation on the interaction
1,F102C,with no effect

# Variants of: B1
# Conditions: with pk3ca_human PIK3CA
row,Variant,effect of a mutation on the interaction
1,F102C,with no effect

# Variants of: B1
# Conditions: with pk3cb_human PIK3CB
row,Variant,effect of a mutation on the interaction
1,F102C,with no effect

# Variants of: B1
# Conditions: with pk3cg_human PIK3CG
row,Variant,effect of a mutation on the interaction
1,F102C,with no effect

# Variants of: B1
# Conditions: with p85b_human PIK3R2, O00459
row,Variant,effect of a mutation on the interaction
1,F102C,with no effect

# Variants of: B1
# Conditions: with dpod1_human POLD1, P28340
row,Variant,effect of a mutation on the interaction
1,F102C,with no effect

# Variants of: B1
# Conditions: with dpoe1_human POLE
row,Variant,effect of a mutation on the interaction
1,F102C,with no effect

# Variants of: B1
# Conditions: with ppard_human PPARD
row,Variant,effect of a mutation on the interaction
1,F102C,with no effect

# Variants of: B1
# Conditions: with prdm1_human PRDM1, O75626
# Sequence of prdm1_human PRDM1, O75626 (O75626 whole entry): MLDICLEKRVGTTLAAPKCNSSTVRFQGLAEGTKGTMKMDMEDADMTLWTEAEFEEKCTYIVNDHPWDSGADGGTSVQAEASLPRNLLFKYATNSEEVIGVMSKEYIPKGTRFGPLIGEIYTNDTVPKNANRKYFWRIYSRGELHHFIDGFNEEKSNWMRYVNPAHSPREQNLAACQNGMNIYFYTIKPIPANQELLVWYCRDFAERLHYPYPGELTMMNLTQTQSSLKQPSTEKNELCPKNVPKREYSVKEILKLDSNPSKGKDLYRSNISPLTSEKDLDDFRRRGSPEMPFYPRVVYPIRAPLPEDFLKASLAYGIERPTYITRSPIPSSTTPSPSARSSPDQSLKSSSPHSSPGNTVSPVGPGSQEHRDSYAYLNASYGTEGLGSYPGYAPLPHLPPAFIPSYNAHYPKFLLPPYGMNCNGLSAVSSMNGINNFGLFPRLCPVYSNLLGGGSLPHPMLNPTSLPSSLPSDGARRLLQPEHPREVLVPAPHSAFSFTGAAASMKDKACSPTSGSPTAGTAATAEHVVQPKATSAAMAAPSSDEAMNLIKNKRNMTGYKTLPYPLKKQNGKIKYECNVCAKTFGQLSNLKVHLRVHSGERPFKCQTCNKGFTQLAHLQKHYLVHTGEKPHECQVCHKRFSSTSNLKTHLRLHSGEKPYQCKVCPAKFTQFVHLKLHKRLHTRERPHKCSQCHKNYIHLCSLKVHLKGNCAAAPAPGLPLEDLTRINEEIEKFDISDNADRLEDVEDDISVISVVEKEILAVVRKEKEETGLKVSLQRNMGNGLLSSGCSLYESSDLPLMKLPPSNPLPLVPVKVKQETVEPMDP
row,Variant,effect of a mutation on the interaction
1,F102C,with no effect

# Variants of: B1
# Conditions: with prex2_human PREX2, Q70Z35
row,Variant,effect of a mutation on the interaction
1,F102C,with no effect

# Variants of: B1
# Conditions: with aapk2_human PRKAA2, P54646
row,Variant,effect of a mutation on the interaction
1,F102C,with no effect

# Variants of: B1
# Conditions: with prss8_human PRSS8, Q16651
row,Variant,effect of a mutation on the interaction
1,F102C,with no effect

# Variants of: B1
# Conditions: with tf65_human RELA
row,Variant,effect of a mutation on the interaction
1,F102C,with no effect

# Variants of: B1
# Conditions: with rictr_human RICTOR
row,Variant,effect of a mutation on the interaction
1,F102C,with no effect

# Variants of: B1
# Conditions: with rnf43_human RNF43, Q68DV7
row,Variant,effect of a mutation on the interaction
1,F102C,with no effect

# Variants of: B1
# Conditions: with ros1_human ROS1, P08922
row,Variant,effect of a mutation on the interaction
1,F102C,with no effect

# Variants of: B1
# Conditions: with rl11_human RPL11, P62913
row,Variant,effect of a mutation on the interaction
1,F102C,with no effect

# Variants of: B1
# Conditions: with rl5_human RPL5, P46777
row,Variant,effect of a mutation on the interaction
1,F102C,with no effect

# Variants of: B1
# Conditions: with rs15_human RPS15, P62841
row,Variant,effect of a mutation on the interaction
1,F102C,with no effect

# Variants of: B1
# Conditions: with rptor_human RPTOR
row,Variant,effect of a mutation on the interaction
1,F102C,with no effect

# Variants of: B1
# Conditions: with rxra_human RXRA
row,Variant,effect of a mutation on the interaction
1,F102C,with no effect

# Variants of: B1
# Conditions: with sdha_human SDHA
row,Variant,effect of a mutation on the interaction
1,F102C,with no effect

# Variants of: B1
# Conditions: with setbp_human SETBP1, Q9Y6X0
row,Variant,effect of a mutation on the interaction
1,F102C,with no effect

# Variants of: B1
# Conditions: with skp2_human SKP2, Q13309
row,Variant,effect of a mutation on the interaction
1,F102C,with no effect

# Variants of: B1
# Conditions: with smad1_human SMAD1, Q15797
row,Variant,effect of a mutation on the interaction
1,F102C,with no effect

# Variants of: B1
# Conditions: with smca4_human SMARCA4, P51532
row,Variant,effect of a mutation on the interaction
1,F102C,with no effect

# Variants of: B1
# Conditions: with snf5_human SMARCB1, Q12824
row,Variant,effect of a mutation on the interaction
1,F102C,with no effect

# Variants of: B1
# Conditions: with smo_human SMO
row,Variant,effect of a mutation on the interaction
1,F102C,with no effect

# Variants of: B1
# Conditions: with socs1_human SOCS1, O15524
row,Variant,effect of a mutation on the interaction
1,F102C,with no effect

# Variants of: B1
# Conditions: with sox10_human SOX10, P56693
row,Variant,effect of a mutation on the interaction
1,F102C,with no effect

# Variants of: B1
# Conditions: with sox2_human SOX2, P48431
row,Variant,effect of a mutation on the interaction
1,F102C,with no effect

# Variants of: B1
# Conditions: with src_human SRC
row,Variant,effect of a mutation on the interaction
1,F102C,with no effect

# Variants of: B1
# Conditions: with whr1_human WHR1, P49842
row,Variant,effect of a mutation on the interaction
1,F102C,with no effect

# Variants of: B1
# Conditions: with stk38_human STK38, Q15208
row,Variant,effect of a mutation on the interaction
1,F102C,with no effect

# Variants of: B1
# Conditions: with eloc_human ELOC
row,Variant,effect of a mutation on the interaction
1,F102C,with no effect

# Variants of: B1
# Conditions: with tfe2_human TCF3, P15923
row,Variant,effect of a mutation on the interaction
1,F102C,with no effect

# Variants of: B1
# Conditions: with tead1_human TEAD1, P28347
row,Variant,effect of a mutation on the interaction
1,F102C,with no effect

# Variants of: B1
# Conditions: with tead3_human TEAD3, Q99594
row,Variant,effect of a mutation on the interaction
1,F102C,with no effect

# Variants of: B1
# Conditions: with tead4_human TEAD4, Q15561
row,Variant,effect of a mutation on the interaction
1,F102C,with no effect

# Variants of: B1
# Conditions: with tgfr2_human TGFBR2, P37173
row,Variant,effect of a mutation on the interaction
1,F102C,with no effect

# Variants of: B1
# Conditions: with tnr14_human TNFRSF14, Q92956
# Sequence of tnr14_human TNFRSF14, Q92956 (Q92956 whole entry): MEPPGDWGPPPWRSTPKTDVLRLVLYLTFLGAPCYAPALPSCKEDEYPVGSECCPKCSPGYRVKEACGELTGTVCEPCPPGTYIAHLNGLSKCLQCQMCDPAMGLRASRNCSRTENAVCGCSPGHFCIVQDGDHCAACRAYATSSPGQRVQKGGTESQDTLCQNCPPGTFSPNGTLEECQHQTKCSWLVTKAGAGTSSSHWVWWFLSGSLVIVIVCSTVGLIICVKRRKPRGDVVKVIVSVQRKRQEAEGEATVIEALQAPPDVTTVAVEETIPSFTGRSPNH
row,Variant,effect of a mutation on the interaction
1,F102C,with no effect

# Variants of: B1
# Conditions: with tsc2_human TSC2, P49815
# Sequence of tsc2_human TSC2, P49815 (P49815 whole entry): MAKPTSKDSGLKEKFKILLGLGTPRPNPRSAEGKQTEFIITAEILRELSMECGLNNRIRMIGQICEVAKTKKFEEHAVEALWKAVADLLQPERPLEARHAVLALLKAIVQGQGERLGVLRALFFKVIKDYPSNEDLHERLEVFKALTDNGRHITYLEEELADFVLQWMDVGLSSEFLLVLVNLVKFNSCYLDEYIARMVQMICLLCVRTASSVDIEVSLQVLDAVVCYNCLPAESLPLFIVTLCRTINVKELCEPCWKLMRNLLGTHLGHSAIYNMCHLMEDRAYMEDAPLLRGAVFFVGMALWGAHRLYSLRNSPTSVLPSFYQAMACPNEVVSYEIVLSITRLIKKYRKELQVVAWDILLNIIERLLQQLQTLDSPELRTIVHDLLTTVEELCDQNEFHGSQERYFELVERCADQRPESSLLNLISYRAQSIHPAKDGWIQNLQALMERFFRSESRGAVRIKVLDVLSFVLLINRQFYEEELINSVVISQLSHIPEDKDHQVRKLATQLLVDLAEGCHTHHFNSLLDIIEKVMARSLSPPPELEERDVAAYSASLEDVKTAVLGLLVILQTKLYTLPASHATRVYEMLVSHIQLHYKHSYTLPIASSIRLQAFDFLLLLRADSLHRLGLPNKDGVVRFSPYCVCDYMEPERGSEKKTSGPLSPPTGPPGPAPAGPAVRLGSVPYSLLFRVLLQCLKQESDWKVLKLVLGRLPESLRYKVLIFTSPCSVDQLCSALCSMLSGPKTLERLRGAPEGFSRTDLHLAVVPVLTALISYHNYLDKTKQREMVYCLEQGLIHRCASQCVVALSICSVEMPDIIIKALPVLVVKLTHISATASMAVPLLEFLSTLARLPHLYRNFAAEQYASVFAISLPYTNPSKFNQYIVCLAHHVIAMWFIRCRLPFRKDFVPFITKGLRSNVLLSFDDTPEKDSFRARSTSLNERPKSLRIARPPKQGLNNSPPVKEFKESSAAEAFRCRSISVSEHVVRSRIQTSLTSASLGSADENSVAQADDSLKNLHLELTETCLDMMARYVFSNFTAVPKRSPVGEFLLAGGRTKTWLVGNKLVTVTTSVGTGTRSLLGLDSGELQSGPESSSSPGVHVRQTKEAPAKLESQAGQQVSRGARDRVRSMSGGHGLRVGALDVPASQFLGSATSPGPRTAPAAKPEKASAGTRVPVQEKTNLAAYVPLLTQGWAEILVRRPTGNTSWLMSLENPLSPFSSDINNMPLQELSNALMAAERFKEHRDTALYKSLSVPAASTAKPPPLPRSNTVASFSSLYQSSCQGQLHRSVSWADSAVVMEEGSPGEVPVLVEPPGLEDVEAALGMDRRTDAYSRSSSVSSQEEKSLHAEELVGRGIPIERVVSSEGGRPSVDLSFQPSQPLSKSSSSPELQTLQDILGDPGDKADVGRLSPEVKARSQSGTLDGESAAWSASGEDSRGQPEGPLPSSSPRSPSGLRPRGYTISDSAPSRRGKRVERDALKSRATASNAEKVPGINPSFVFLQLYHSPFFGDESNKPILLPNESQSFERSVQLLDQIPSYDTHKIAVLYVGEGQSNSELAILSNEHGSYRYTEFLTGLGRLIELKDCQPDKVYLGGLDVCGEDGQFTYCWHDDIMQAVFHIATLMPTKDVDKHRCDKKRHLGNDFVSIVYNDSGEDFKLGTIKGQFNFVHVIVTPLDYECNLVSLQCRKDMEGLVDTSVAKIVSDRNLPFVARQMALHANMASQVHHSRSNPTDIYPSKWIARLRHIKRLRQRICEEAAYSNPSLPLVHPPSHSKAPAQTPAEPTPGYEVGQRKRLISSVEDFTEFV
row,Variant,effect of a mutation on the interaction
1,F102C,with no effect

# Variants of: B1
# Conditions: with tshr_human TSHR
row,Variant,effect of a mutation on the interaction
1,F102C,with no effect

# Variants of: B1
# Conditions: with vegfa_human VEGFA
row,Variant,effect of a mutation on the interaction
1,F102C,with no effect

# Variants of: B1
# Conditions: with vhl_human VHL
row,Variant,effect of a mutation on the interaction
1,F102C,with no effect

# Variants of: B1
# Conditions: with wee1_human WEE1, P30291
row,Variant,effect of a mutation on the interaction
1,F102C,with no effect

# Variants of: B1
# Conditions: with wwtr1_human WWTR1, Q9GZV5
row,Variant,effect of a mutation on the interaction
1,F102C,with no effect

# Variants of: B1
# Conditions: with xpo1_human XPO1, O14980
row,Variant,effect of a mutation on the interaction
1,F102C,with no effect

# Variants of: B1
# Conditions: with igf1r_human IGF1R
row,Variant,effect of a mutation on the interaction
1,F102C,causing an interaction

# Variants of: B1
# Conditions: with etv1_human ETV1, P50549
row,Variant,effect of a mutation on the interaction
1,F102C,disrupting interaction strength

# Variants of: B1
# Conditions: with pk3ca_human PIK3CA
# Remark: another data set of the same source
row,Variant,effect of a mutation on the interaction
1,F102C,increasing interaction strength
